This experiment addresses homo-oligomeric archaeal chaperonin from Methanococcus maripaludis (MmCpn) (Methanococcus maripaludis). The experiment is described as follows: cryo-EM structure; MmCpn 4 uM mixed on ice with 32 uM ATP (1 hexadecamer to 8 ATP), frozen immediately; single-particle reconstruction with D8 symmetry (also C1), 3.9 Å; focused classification of rings and subunits.

Consider “homo-oligomeric archaeal chaperonin from Methanococcus maripaludis (MmCpn) (natural protein)”, for which the stoichiometry N – broadly, the number of molecules, sites or subunits per partner or assembly – turned out to be 16 subunits.

Source of the values: paper PMC8346469.
